# Test results taken from the RNAGym collection of RNA variant scans (doi:10.7554/elife.80360).
# B1: Hairpin Ribozyme (parent)
# chain: GUCCUCUUUCACGUGCGCGUGAAAGAGAGAAGUGAACCAGAGAAACACACGUUGUGGUAUAUUACCUGGUA
# Variants of: B1
# Assay: self-cleavage, relative activity (ratio to wild type); higher = more cleavage; co-transcriptional
row,Variant,self-cleavage
1,C10A G34A,0.92
2,C10A G34U,1.01
3,C10A U33A,0.153
4,U9C U53G,1.13
5,U9C U53C,0.741
6,C10U C38G,0.269
7,C10U C38U,0.387
8,C10U C38A,0.157
9,A11G A35G,0.764
10,A11C U55C,0.183
11,A11C U55A,0.448
12,U9G G13C,0.528
13,C10G A36U,0.336
14,C10U C48A,0.104
15,C10U C48G,0.134
16,C10A A24C,0.598
17,C10A G21A,0.856
18,C10A G21C,0.67
19,C10U G27C,0.0988
20,C10U G27U,0.225
21,A11C G17U,0.745
22,A11C G17C,0.745
23,C10A G15A,0.773
24,C10A G15C,0.755

row,Variant,self-cleavage
1,C10A G57A,0.162
2,C10U G32C,0.17
3,U9G G68U,0.189
4,C10A G40C,0.158
5,C10G A22C,0.597
6,C10G G56U,0.109
7,C10G G56C,0.149
8,U9G G15A,0.646
9,C10U G17U,0.665
10,U9G G34A,0.8
11,U9G G34C,0.833
12,A11C A47U,0.251
13,C10G U70C,0.93
14,C10G U70A,0.592
15,C10G C37G,0.372
16,C10G C37U,0.379
17,A11C G27U,0.365
18,C10U A28G,0.822
19,C10U G68C,0.229
20,A11C A24G,0.539
21,C10A G27C,0.159
22,A11G A36C,0.508
23,A11C G19A,0.741
24,C10G U67G,0.205

row,Variant,self-cleavage
1,A11C A26G,0.645
2,C10G U55A,0.316
3,C10G U55G,0.195
4,A11C A43G,0.0792
5,A11C A43C,0
6,A11C U60A,0.716
7,A11C U60G,0.714
8,C10A A31C,0.09
9,C10A A41C,0.752
10,C10A A41U,1.04
11,A11C A39U,0.37
12,C10U G57C,0.187
13,C10G U33G,0.25
14,C10G U33C,0.0987
15,U9G G40A,0.179
16,U9G G40U,0.086
17,C10A A45U,0.121
18,C10A A45C,0.111
19,C10G G34C,1.08
20,U9G G69A,0.223
21,U9G G69U,0.111
22,C10U U52C,0.949
23,C10U U52G,0.564
24,A11G A23C,0.596

row,Variant,self-cleavage
1,A11G A23U,0.93
2,C10A G19U,0.59
3,C10A A49G,0.357
4,C10U C50U,0.391
5,C10U C50A,0.18
6,C10U U55C,0.337
7,C10U U55G,0.201
8,C10U U55A,0.213
9,C10G U58A,0.591
10,U9G G32C,0.0561
11,U9G A31U,0.1
12,C10U A43C,0.189
13,C10U A43G,0.113
14,A11C G21U,0.799
15,C10A A64G,0.397
16,C10G A47C,0.307
17,C10A A22G,0.607
18,C10A A22U,0.632
19,C10U G69A,0.405
20,C10U G69U,0.217
21,C10A A61G,0.183
22,C10U A35C,0.871
23,U9G A61U,0.211
24,C10U C18U,0.95

row,Variant,self-cleavage
1,C10U C18A,0.956
2,C10G C65A,0.746
3,U9C U58A,0.559
4,C10A G54C,0.355
5,C10A C46U,0.2
6,C10A C46G,0.1
7,C10A C46A,0.109
8,A11C G25C,0.457
9,A11C G25A,0.504
10,U9C U52A,0.895
11,C10U U60C,0.992
12,C10A C12A,0.476
13,A11C A35U,0.643
14,A11C A35G,0.837
15,C10U G54A,0.561
16,C10U G54U,0.452
17,C10A U60C,0.579
18,C10A U60G,0.377
19,C10A U60A,0.64
20,A11C G54A,0.508
21,C10G U60C,0.815
22,C10U A39C,0.458
23,A11C C16G,0.578
24,A11C C16A,0.759

row,Variant,self-cleavage
1,A11C U53C,0.681
2,C10U U62A,0.234
3,A11C G15U,0.996
4,C10U A31C,0.135
5,U9G C66G,0.172
6,U9G C18U,0.793
7,U9G U62A,0.0559
8,U9G G57C,0.232
9,U9G G21U,0.674
10,U9G G21C,0.736
11,U9G G25C,0.255
12,U9G G25U,0.194
13,C10G U20G,0.561
14,C10G U20C,0.647
15,C10U A44C,0.135
16,C10U A26C,0.687
17,C10G G68A,0.172
18,C10G G68U,0.148
19,C10G U62G,0.138
20,U9G G19A,0.548
21,A11C U52A,0.762
22,C10U U20G,0.498
23,U9G A64G,0.478
24,U9G A64C,0.164

row,Variant,self-cleavage
1,U9G A28G,1.01
2,U9G A28C,0.315
3,C10G G19C,0.539
4,C10G U14G,0.378
5,C10G U14A,0.635
6,C10G U14C,0.573
7,U9G A11G,0.551
8,C10A G25U,0.356
9,C10A G25C,0.227
10,C10A G25A,0.187
11,A11C A22C,0.803
12,U9G C48G,0.0994
13,U9G C48U,0.158
14,U9G C48A,0.12
15,U9C U62A,0.238
16,U9G G51U,0.814
17,U9G C65U,0.122
18,U9G A26C,0.418
19,U9G A26G,0.386
20,C10G C18A,0.907
21,C10G C18G,0.621
22,C10A G56U,0.148
23,U9C U63G,0.169
